The text below walks through data of PMC12102759.

To fix the notation:
B1: PIP5K1C peptide 640-655 (Phosphatidylinositol 4-phosphate 5-kinase type-1 gamma), 16-mer library wild type / TLN1 PTB (TLN1 Phosphotyrosine-binding (PTB) domain, residues 309-401) (parent)
chain 1: FPTDERSWVYSPLHYS
chain 2: GVSFFLVKEKMKGKNKLVPRLLGITKECVMRVDEKTKEVIQEWNLTNIKRWAASPKSFTLDFGDYQDGYYSVQTTEGEQIAQLIAGYIDIILK

Variants of B1 are the subject of the test. Put plainly: proteomic peptide phage display deep mutational scan (ProP-PD DMS): M13 P8 16-mer library selected against immobilised GST-tagged bait for four days (rounds), NGS of the eluted pools per day and pseudo-replica. The conditions noted are these: with TLN1 PTB (TLN1 Phosphotyrosine-binding (PTB) domain, residues 309-401); bait immobilised on MaxiSorp plates (10 µg), library pre-cleared on GST, 2 h binding at 4 °C, five washes; one round per day, days 1-4; value from days 2 and 3; keep out of graded; scale: average fractional NGS count over selection days 2 and 3.
Regarding chain 1 FPYDERSWVYSPLHYS [chain 1 T3Y], the screen value came to 0.000733.

For chain 1 FPLDERSWVYSPLHYS [chain 1 T3L], the screen value stood at 0.00116.

With chain 1 FPSDERSWVYSPLHYS [chain 1 T3S], the screen value was 0.00018.

Consider chain 1 FPVDERSWVYSPLHYS [chain 1 T3V], for which the screen value was found to be 4.5e-05.

In the case of chain 1 FPIDERSWVYSPLHYS [chain 1 T3I], the screen value was determined as 5.15e-05.

Take chain 1 FPPDERSWVYSPLHYS [chain 1 T3P]: the screen value is 0.000173.

As for chain 1 FPHDERSWVYSPLHYS [chain 1 T3H], the screen value came out at 0.000204.

In the case of chain 1 FPWDERSWVYSPLHYS [chain 1 T3W], the screen value came out at 0.000436.

As to chain 1 FPDDERSWVYSPLHYS [chain 1 T3D], the screen value was 5.93e-05.

Regarding chain 1 FPQDERSWVYSPLHYS [chain 1 T3Q], the screen value came to 0.000354.

On to chain 1 FPADERSWVYSPLHYS [chain 1 T3A], for which the screen value was found to be 8.91e-05.

In the case of chain 1 FPNDERSWVYSPLHYS [chain 1 T3N], the screen value was determined as 8.2e-05.

In the case of chain 1 FPGDERSWVYSPLHYS [chain 1 T3G], the screen value was 9.69e-05.

For chain 1 FPRDERSWVYSPLHYS [chain 1 T3R], the screen value is 0.000107.

chain 1 FPTGERSWVYSPLHYS [chain 1 D4G]: the screen value was found to be 0.000716.

In the case of chain 1 FPTVERSWVYSPLHYS [chain 1 D4V], the screen value is 5.15e-05.

For the variant chain 1 FPTLERSWVYSPLHYS [chain 1 D4L], the screen value is 0.000325.

As to chain 1 FPTNERSWVYSPLHYS [chain 1 D4N], the screen value was found to be 3.05e-05.

Regarding chain 1 FPTFERSWVYSPLHYS [chain 1 D4F], the screen value amounted to 0.00015.

For chain 1 FPTSERSWVYSPLHYS [chain 1 D4S], the screen value amounted to 0.000264.

For the variant chain 1 FPTIERSWVYSPLHYS [chain 1 D4I], the screen value turned out to be 7.24e-05.

Take chain 1 FPTWERSWVYSPLHYS [chain 1 D4W]: the screen value turned out to be 8.26e-05.

As for chain 1 FPTPERSWVYSPLHYS [chain 1 D4P], the screen value amounted to 7.86e-05.

In the case of chain 1 FPTEERSWVYSPLHYS [chain 1 D4E], the screen value came out at 2.74e-05.

Take chain 1 FPTAERSWVYSPLHYS [chain 1 D4A]: the screen value turned out to be 0.000109.

On to chain 1 FPTMERSWVYSPLHYS [chain 1 D4M], for which the screen value amounted to 2.74e-05.

Take chain 1 FPTHERSWVYSPLHYS [chain 1 D4H]: the screen value was 0.000241.

In the case of chain 1 FPTDERSWVISPLHYS [chain 1 Y10I], the screen value is 0.000546.

In the case of chain 1 FPTDERSWVDSPLHYS [chain 1 Y10D], the screen value came to 0.000521.

Turning to chain 1 FPTDERSWVFSPLHYS [chain 1 Y10F], the screen value worked out at 0.000662.

Consider chain 1 FPTDERSWVASPLHYS [chain 1 Y10A], for which the screen value turned out to be 0.000303.

For chain 1 FPTDERSWVWSPLHYS [chain 1 Y10W], the screen value was determined as 8.84e-05.

Turning to chain 1 FPTDERSWVTSPLHYS [chain 1 Y10T], the screen value was found to be 0.00117.

As to chain 1 FPTDERSWVNSPLHYS [chain 1 Y10N], the screen value was found to be 0.000216.

Regarding chain 1 FPTDERSWVQSPLHYS [chain 1 Y10Q], the screen value came out at 0.000754.

As to chain 1 FPTDERSWVHSPLHYS [chain 1 Y10H], the screen value was determined as 6.93e-05.

On to chain 1 FPTDERSWVRSPLHYS [chain 1 Y10R], for which the screen value amounted to 0.000894.

As for chain 1 FPTDERSWVLSPLHYS [chain 1 Y10L], the screen value was found to be 0.000358.

Consider chain 1 FPTDERSWVKSPLHYS [chain 1 Y10K], for which the screen value stood at 0.00109.

chain 1 FPTDERSWVVSPLHYS [chain 1 Y10V]: the screen value worked out at 0.000724.

Regarding chain 1 FPTDERSWVYSPLSYS [chain 1 H14S], the screen value came out at 0.000388.

In the case of chain 1 FPTDERSWVYSPLKYS [chain 1 H14K], the screen value was found to be 0.00016.

In the case of chain 1 FPTDERSWVYSPLFYS [chain 1 H14F], the screen value came to 2.74e-05.

Take chain 1 FPTDERSWVYSPLVYS [chain 1 H14V]: the screen value was 0.000348.

Regarding chain 1 FPTDERSWVYSPLPYS [chain 1 H14P], the screen value was 0.000231.

For chain 1 FPTDERSWVYSPLAYS [chain 1 H14A], the screen value is 0.000225.

As to chain 1 FPTDERSWVYSPLQYS [chain 1 H14Q], the screen value was determined as 0.000124.

With chain 1 FPTDERSWVYSPLMYS [chain 1 H14M], the screen value was determined as 0.00119.

In the case of chain 1 FPTDERSWVYSPLWYS [chain 1 H14W], the screen value is 5.14e-05.

On to chain 1 FPTDERSWVYSPLLYS [chain 1 H14L], for which the screen value came out at 9.59e-05.

Regarding chain 1 FPTDERSWVYSPLIYS [chain 1 H14I], the screen value was determined as 4.44e-05.

As for chain 1 FPTDERSWVYSPLYYS [chain 1 H14Y], the screen value was determined as 0.000112.

For the variant chain 1 FPTDERSWVYSPLEYS [chain 1 H14E], the screen value was determined as 0.000433.

Take chain 1 FPTDERSWVYSPLDYS [chain 1 H14D]: the screen value stood at 0.000394.

For chain 1 FPTDERMWVYSPLHYS [chain 1 S7M], the screen value came out at 0.000552.

With chain 1 FPTDERTWVYSPLHYS [chain 1 S7T], the screen value worked out at 0.000136.

On to chain 1 FPTDERIWVYSPLHYS [chain 1 S7I], for which the screen value came out at 0.00143.

Turning to chain 1 FPTDERDWVYSPLHYS [chain 1 S7D], the screen value was found to be 8.2e-05.

With chain 1 FPTDERHWVYSPLHYS [chain 1 S7H], the screen value was 0.00017.

Take chain 1 FPTDERRWVYSPLHYS [chain 1 S7R]: the screen value was 0.000434.

Take chain 1 FPTDERPWVYSPLHYS [chain 1 S7P]: the screen value was 0.

chain 1 FPTDERNWVYSPLHYS [chain 1 S7N]: the screen value amounted to 3.76e-05.

Consider chain 1 FPTDERWWVYSPLHYS [chain 1 S7W], for which the screen value worked out at 0.000136.

With chain 1 FPTDERLWVYSPLHYS [chain 1 S7L], the screen value amounted to 0.00013.

In the case of chain 1 FPTDERKWVYSPLHYS [chain 1 S7K], the screen value came out at 0.000214.

Consider chain 1 FPTDEREWVYSPLHYS [chain 1 S7E], for which the screen value was 6.81e-05.

For chain 1 FPTDERGWVYSPLHYS [chain 1 S7G], the screen value amounted to 6.31e-05.

chain 1 FPTDERSWVYSPWHYS [chain 1 L13W]: the screen value amounted to 0.00176.

Take chain 1 FPTDERSWVYSPAHYS [chain 1 L13A]: the screen value worked out at 0.000116.

Regarding chain 1 FPTDERSWVYSPDHYS [chain 1 L13D], the screen value was 0.

On to chain 1 FPTDERSWVYSPGHYS [chain 1 L13G], for which the screen value turned out to be 0.000132.

For the variant chain 1 FPTDERSWVYSPYHYS [chain 1 L13Y], the screen value was found to be 0.000435.

Regarding chain 1 FPTDERSWVYSPMHYS [chain 1 L13M], the screen value was 0.000592.

As to chain 1 FPTDERSWVYSPIHYS [chain 1 L13I], the screen value was found to be 0.000497.

Take chain 1 FPTDERSWVYSPSHYS [chain 1 L13S]: the screen value was 0.000183.

chain 1 FPTDERSWVYSPNHYS [chain 1 L13N]: the screen value was 4.75e-05.

Turning to chain 1 FPTDERSWVYSPVHYS [chain 1 L13V], the screen value is 0.00019.

chain 1 FPTDERSWVYSPQHYS [chain 1 L13Q]: the screen value turned out to be 5.12e-05.

Regarding chain 1 FPTDERSWVYSPFHYS [chain 1 L13F], the screen value stood at 0.00025.

Take chain 1 FPTDVRSWVYSPLHYS [chain 1 E5V]: the screen value is 0.00021.

Turning to chain 1 FPTDKRSWVYSPLHYS [chain 1 E5K], the screen value was 0.000102.

For the variant chain 1 FPTDHRSWVYSPLHYS [chain 1 E5H], the screen value stood at 0.000485.

On to chain 1 FPTDMRSWVYSPLHYS [chain 1 E5M], for which the screen value worked out at 0.000263.

On to chain 1 FPTDQRSWVYSPLHYS [chain 1 E5Q], for which the screen value was determined as 6.1e-05.

Take chain 1 FPTDPRSWVYSPLHYS [chain 1 E5P]: the screen value turned out to be 0.00165.

On to chain 1 FPTDFRSWVYSPLHYS [chain 1 E5F], for which the screen value was 0.000369.

Regarding chain 1 FPTDTRSWVYSPLHYS [chain 1 E5T], the screen value was determined as 0.000451.

For the variant chain 1 FPTDLRSWVYSPLHYS [chain 1 E5L], the screen value was found to be 0.00192.

On to chain 1 FPTDYRSWVYSPLHYS [chain 1 E5Y], for which the screen value was determined as 0.000182.

As for chain 1 FPTDIRSWVYSPLHYS [chain 1 E5I], the screen value stood at 0.000716.

Take chain 1 FPTDNRSWVYSPLHYS [chain 1 E5N]: the screen value came to 0.00102.

Consider chain 1 FPTDGRSWVYSPLHYS [chain 1 E5G], for which the screen value stood at 0.000212.

In the case of chain 1 FPTDSRSWVYSPLHYS [chain 1 E5S], the screen value was 0.000272.

On to chain 1 FPTDARSWVYSPLHYS [chain 1 E5A], for which the screen value is 0.000188.
